T1: human TL1A (Fitzgerald #30R-AT070) (human, UniProt O95150 72-251, limits assumed)
T1 construct: Coated on the ELISA plate at 1 ug/mL; also called TNFSF15
T1 sequence (looked up): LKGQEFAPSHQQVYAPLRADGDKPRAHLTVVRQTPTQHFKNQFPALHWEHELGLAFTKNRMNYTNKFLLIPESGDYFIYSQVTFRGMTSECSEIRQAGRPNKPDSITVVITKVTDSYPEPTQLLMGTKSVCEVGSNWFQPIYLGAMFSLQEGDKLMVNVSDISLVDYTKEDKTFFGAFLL

B1: A149 (antibody, human IgG1, V domains shown)
VH: QVQLVQSGAEVKKPGASVKVSCKASGFDIQDTYMHWVRQAPGQGLEWMGRIEPASGHIKYDPKFQVRATMTRDTSTSTVYMELSSLRSEDTAVYYCARSGGLPDWWGQGTTVTVSS
VL: EIVLTQSPGTLSLSPGERATLSCRASSSVSYMYWYQQKPGQAPRPLIYATSNLASGIPDRFSGSGSGTDFTLTISRLEPEDFAVYYCQQWEGNPRTFGGGTKLEIK
notes: human IgG1/kappa (pFuse vectors), culture supernatant
B2: A37 (antibody, human IgG1, V domains shown)
VH: QVQLVQSGAEVKKPGASVKVSCKASGFDIQDTYMHWVKQRPGQGLEWMGRIDPASGHTKYDPKFQVRATITTDTSTSTAYLELSSLRSEDTAVYYCARSGGLPDVWGQGTTVTVSS
VL: EIVLTQSPGTLSASPGERATMSCRASSSVSYMYWYQQKPGQAPRPWIYATSNLASGVPDRFSGSGSGTDYTLTISRVEPEDFAVYYCQQWSGNPRTFGGGTKLEIK
notes: as for B1
B3: A38 (antibody, human IgG1, V domains shown)
VH: QVQLVQSGAEVKKPGASVKVSCKASGFDIQDTYMHWVKQRPGQGLEWIGRIDPASGHTKYDPKFQVRATITTDTSTSTVYLELSSLRSEDTAVYYCARSGGLPDVWGQGTTVTVSS
VL: EIVLTQSPGTLSASPGERATMSCRASSSVSYMYWYQQKPGQAPRPWIYATSNLASGVPDRFSGSGSGTDYTLTISRVEPEDFAVYYCQQWSGNPRTFGGGTKLEIK
notes: as for B1
B4: A30 (antibody, human IgG1, V domains shown)
VH: QVQLVQSGAEVKKPGASVKVSCKASGFDIQDTYMHWVKQRPGQGLEWIGRIDPASGHTKYDPKFQVRATITTDTSTSTAYLELSSLRSEDTAVYYCARSGGLPDVWGQGTTVTVSS
VL: EIVLTQSPGTLSLSPGERATLSCRASSSVSYMYWYQQKPGQAPRLLIYATSNLASGIPDRFSGSGSGTDFTLTISRLEPEDFAVYYCQQWKGNPRTFGGGTKLEIK
notes: as for B1
B5: A39 (antibody, human IgG1, V domains shown)
VH: QVQLVQSGAEVKKPGASVKVSCKASGFDIQDTYMHWVKQRPGQGLEWIGRIDPASGHTKYDPKFQVRATITTDTSTSTAYMELSSLRSEDTAVYYCARSGGLPDVWGQGTTVTVSS
VL: EIVLTQSPGTLSASPGERATMSCRASSSVSYMYWYQQKPGQAPRPWIYATSNLASGVPDRFSGSGSGTDYTLTISRVEPEDFAVYYCQQWSGNPRTFGGGTKLEIK
notes: as for B1
B6: A40 (antibody, human IgG1, V domains shown)
VH: QVQLVQSGAEVKKPGASVKVSCKASGFDIQDTYMHWVKQRPGQGLEWIGRIDPASGHTKYDPKFQVRATITTDTSTSTVYMELSSLRSEDTAVYYCARSGGLPDVWGQGTTVTVSS
VL: EIVLTQSPGTLSASPGERATMSCRASSSVSYMYWYQQKPGQAPRPWIYATSNLASGVPDRFSGSGSGTDYTLTISRVEPEDFAVYYCQQWSGNPRTFGGGTKLEIK
notes: as for B1
B7: A36 (antibody, human IgG1, V domains shown)
VH: QVQLVQSGAEVKKPGASVKVSCKASGFDIQDTYMHWVRQAPGQGLEWIGRIDPASGHTKYDPKFQVRATITTDTSTSTAYLELSSLRSEDTAVYYCARSGGLPDVWGQGTTVTVSS
VL: EIVLTQSPGTLSASPGERATMSCRASSSVSYMYWYQQKPGQAPRPWIYATSNLASGVPDRFSGSGSGTDYTLTISRVEPEDFAVYYCQQWSGNPRTFGGGTKLEIK
notes: as for B1
B8: A34 (antibody, human IgG1, V domains shown)
VH: QVQLVQSGAEVKKPGASVKVSCKASGFDIQDTYMHWVRQRPGQGLEWIGRIDPASGHTKYDPKFQVRATITTDTSTSTAYLELSSLRSEDTAVYYCARSGGLPDVWGQGTTVTVSS
VL: EIVLTQSPGTLSASPGERATMSCRASSSVSYMYWYQQKPGQAPRPWIYATSNLASGVPDRFSGSGSGTDYTLTISRVEPEDFAVYYCQQWSGNPRTFGGGTKLEIK
notes: as for B1
B9: A41 (antibody, human IgG1, V domains shown)
VH: QVQLVQSGAEVKKPGASVKVSCKASGFDIQDTYMHWVKQRPGQGLEWIGRIDPASGHTKYDPKFQVRVTITTDTSTSTAYLELSSLRSEDTAVYYCARSGGLPDVWGQGTTVTVSS
VL: EIVLTQSPGTLSASPGERATMSCRASSSVSYMYWYQQKPGQAPRPWIYATSNLASGVPDRFSGSGSGTDYTLTISRVEPEDFAVYYCQQWSGNPRTFGGGTKLEIK
notes: as for B1
B10: A35 (antibody, human IgG1, V domains shown)
VH: QVQLVQSGAEVKKPGASVKVSCKASGFDIQDTYMHWVKQAPGQGLEWIGRIDPASGHTKYDPKFQVRATITTDTSTSTAYLELSSLRSEDTAVYYCARSGGLPDVWGQGTTVTVSS
VL: EIVLTQSPGTLSASPGERATMSCRASSSVSYMYWYQQKPGQAPRPWIYATSNLASGVPDRFSGSGSGTDYTLTISRVEPEDFAVYYCQQWSGNPRTFGGGTKLEIK
notes: as for B1
B11: A153 (antibody, human IgG1, V domains shown)
VH: QVQLVQSGAEVKKPGASVKVSCKASGFDIQDTYMHWVRQAPGQGLEWMGRIEPASGHIKYDPKFQGRVTMTRDTSTSTAYMELSSLRSEDTAVYYCARSGGLPDWWGQGTTVTVSS
VL: EIVLTQSPGTLSLSPGERATLSCRASSSVSYMYWYQQKPGQAPRPWIYATSNLASGIPDRFSGSGSGTDFTLTISRLEPEDFAVYYCQQWEGNPRTFGGGTKLEIK
notes: as for B1
B12: A150 (antibody, human IgG1, V domains shown)
VH: QVQLVQSGAEVKKPGASVKVSCKASGFDIQDTYMHWVRQAPGQGLEWMGRIEPASGHIKYDPKFQGRATMTRDTSTSTVYMELSSLRSEDTAVYYCARSGGLPDWWGQGTTVTVSS
VL: EIVLTQSPGTLSLSPGERATLSCRASSSVSYMYWYQQKPGQAPRPLIYATSNLASGIPDRFSGSGSGTDFTLTISRLEPEDFAVYYCQQWEGNPRTFGGGTKLEIK
notes: as for B1
B13: A151 (antibody, human IgG1, V domains shown)
VH: QVQLVQSGAEVKKPGASVKVSCKASGFDIQDTYMHWVRQAPGQGLEWMGRIEPASGHIKYDPKFQVRATITRDTSTSTVYMELSSLRSEDTAVYYCARSGGLPDWWGQGTTVTVSS
VL: EIVLTQSPGTLSLSPGERATLSCRASSSVSYMYWYQQKPGQAPRPLIYATSNLASGIPDRFSGSGSGTDFTLTISRLEPEDFAVYYCQQWEGNPRTFGGGTKLEIK
notes: as for B1
B14: A152 (antibody, human IgG1, V domains shown)
VH: QVQLVQSGAEVKKPGASVKVSCKASGFDIQDTYMHWVRQAPGQGLEWMGRIEPASGHIKYDPKFQGRATITTDTSTSTVYMELSSLRSEDTAVYYCARSGGLPDWWGQGTTVTVSS
VL: EIVLTQSPGTLSLSPGERATLSCRASSSVSYMYWYQQKPGQAPRPLIYATSNLASGIPDRFSGSGSGTDFTLTISRLEPEDFAVYYCQQWEGNPRTFGGGTKLEIK
notes: as for B1
B15: A155 (antibody, human IgG1, V domains shown)
VH: QVQLVQSGAEVKKPGASVKVSCKASGFDIQDTYMHWVRQAPGQGLEWMGRIEPASGHIKYDPKFQVRVTMTRDTSTSTVYMELSSLRSEDTAVYYCARSGGLPDWWGQGTTVTVSS
VL: EIVLTQSPGTLSLSPGERATLSCRASSSVSYMYWYQQKPGQAPRPWIYATSNLASGIPDRFSGSGSGTDFTLTISRLEPEDFAVYYCQQWEGNPRTFGGGTKLEIK
notes: as for B1
B16: A154 (antibody, human IgG1, V domains shown)
VH: QVQLVQSGAEVKKPGASVKVSCKASGFDIQDTYMHWVKQAPGQGLEWMGRIEPASGHIKYDPKFQGRVTMTRDTSTSTVYMELSSLRSEDTAVYYCARSGGLPDWWGQGTTVTVSS
VL: EIVLTQSPGTLSLSPGERATLSCRASSSVSYMYWYQQKPGQAPRPWIYATSNLASGIPDRFSGSGSGTDFTLTISRLEPEDFAVYYCQQWEGNPRTFGGGTKLEIK
notes: as for B1

These binders were tested against T1, human TL1A (Fitzgerald #30R-AT070) (assay: ELISA titration, coated human TL1A, culture supernatant).

Row | Binder | Kd [nM]
1 | B1 | 0.048
2 | B2 | 0.034
3 | B3 | 0.103
4 | B4 | 0.077
5 | B5 | 0.125
6 | B6 | < 0.05
7 | B7 | < 0.05
8 | B8 | < 0.05
9 | B9 | 0.016
10 | B10 | 0.072
11 | B11 | 0.049
12 | B12 | 0.059
13 | B13 | 0.057
14 | B14 | 0.058
15 | B15 | 0.067
16 | B16 | 0.066

Reference: patent US20260216326A1 (PROMETHEUS BIOSCIENCES, published 2026)
